From patent publication US20110064740A1 (GlaxoSmithKline, published 2011)
Ends that are not written are not given here. * marks the point of attachment. Biotin = O=C1N[C@H]2[C@H](CS[C@H]2CCCCC(=O)*)N1

Legend:
[1] = molecular target: T1, Set (B) peptide encompassing amino acids 1-7 of the β-amyloid peptide, DAEFRHD--GSGGSGGSK-biotin; assay: SRU BIND biosensor, peptide set (B)
T1 peptide: DAEFRHDGSGGSGGSK(Biotin)

[2] = molecular target: T2, Set (B) peptide encompassing amino acids 1-6 of the β-amyloid peptide, DAEFRH--GSGGSGGSGK-biotin; assay: SRU BIND biosensor, peptide set (B)
T2 peptide: DAEFRHGSGGSGGSGK(Biotin)

[3] = molecular target: T3, Set (B) peptide encompassing amino acids 1-5 of the β-amyloid peptide, DAEFR--GSGGSGGSGSK-biotin; assay: SRU BIND biosensor, peptide set (B)
T3 peptide: DAEFRGSGGSGGSGSK(Biotin)

[4] = molecular target: T4, Peptide APP1, AcNH-SEVKMDAEFRHDGSGK-biotin; assay: Biacore, peptide on streptavidin chip
T4 construct: also called APP derived peptide APP1
T4 peptide: Ac-SEVKMDAEFRHDGSGK(Biotin)
Procedure: (§1) In addition to the experiments described above, the Biacore™ 3000 optical biosensor was used to monitor the binding of 2E7 antibody to selected β-amyloid sequence derived peptides. Binding was measured by injecting test antibodies at up to 64 nM for 5 minute over peptides captured on separate streptavidin chip surfaces (130-230 RU (resonance units)). A running buffer (HBS-EP) containing 0.01 M HEPES pH7.4, 0.15 M NaCl, 3 mM EDTA and 0.005% Surfactant P20™ at 25° C. was used at a flow rate of 20 ul/min. All runs were double referenced against a blank streptavidin surface and blank injections. Analysis was carried out using the Biacore™ analysis software BIAevaluation™ version 4.1.
In a study similar to the epitope mapping study on 2E7 using the Surface Plasmon Resonance assay described above, H2L1 behaved similarly to 2E7 in binding to the peptide encompassing amino acids 1-12 (Aβ1, SEQ ID No:15) of the β-amyloid peptide and not to the peptide encompassing amino acids 2-13 of the β-amyloid peptide (Aβ2-13, SEQ ID No:44).

[5] = molecular target: T5, Peptide Aβ2-13, AEFRHDSGYEVHGSGK-biotin; assay: Biacore 3000, peptide on streptavidin chip
T5 construct: The range counts on the β-amyloid peptide; also called 2-13 peptide; β-amyloid peptide 2-13
T5 peptide: Ac-AEFRHDSGYEVHGSGK(Biotin)
Procedure: as §1
In a separate experiment the β-amyloid 1-40 peptide was captured via its N-terminal aspartic acid residue that had been biotinylated. This peptide was captured onto a Biacore™ streptavidin coated chip as previously described. Antibody 2E7 injected at 66 nM for 1 minute could not bind this peptide. Therefore, it is concluded that the previously descibed N-terminal binding site was masked by the linker and capture method, thus further confirming the extreme N-terminus as containing the core binding site

[6] = molecular target: T6, human beta-amyloid peptide (1-40) (human, UniProt P05067 672-711); assay: SPR Biacore 3000, Method A(ii): β-amyloid amine-coupled to CM5 chip, antibody 1-64 nM as analyte
T6 construct: domain: beta-amyloid peptide (1-40); Unlabelled peptide: amine-coupled to a CM5 chip (Method A(ii)) or in solution as analyte (Method B); also called beta-amyloid (1-40)
T6 sequence (P05067 672-711 limits assumed): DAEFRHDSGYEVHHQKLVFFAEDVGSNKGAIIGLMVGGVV
Procedure: (§2) (i) Briefly, <20 resonance units of beta-amyloid 1-40 peptide (biotinylated at the C-terminus) were captured on a streptavidin biosensor chip (as used for Table 10A). The antibodies were diluted down in HBS-EP buffer and passed over the streptavidin/beta-amyloid surface at concentrations ranging from 0.001 nM-8 nM (for Table 10A). Two separate runs were carried out; each run was carried out on a new streptavidin/beta-amyloid surface. Runs 1 and 2 were essentially the same though there were some differences in the parameters used; Run 1 was carried out using a chip surface on which 16 RU's of beta-amyloid were captured, and antibody concentrations of 0.001 nM-8 nM were used, an association time of 4 minutes and a dissociation time of 20 minutes were used at a flow rate of 50 μl per minute. For Run 2, less than 10 RU's of beta-amyloid were captured and antibody concentrations of 0.003125 nM-8 nM were used. The flow rate and association times were the same as Run 1, however the dissociation time was reduced to 15 minutes. (ii) Beta amyloid (1-40) and (1-42) were amine-coupled on different surfaces of a CM5 biosensor chip to a level of <20 resonance units (as used for Table 10B). The antibodies were diluted down in HBS-EP buffer and passed over the biosensor/beta-amyloid surface at concentrations ranging from 1 nM-64 nM (as used for Table 10B).
(§3) In both methods, regeneration was via a pulse of 100 mM H₃PO₄, and for Table 10A data also followed by a pulse of 50 mM NaOH. […] All runs were double referenced against buffer blank injections. Analysis was carried out using the Biacore™ analysis software BIAevaluation version 4.1.

[7] = molecular target: T7, human beta-amyloid peptide (1-42) (human, UniProt P05067 672-713); assay: as above
T7 construct: domain: beta-amyloid peptide (1-42); Unlabelled peptide: amine-coupled to a CM5 chip (Method A(ii)) or in solution as analyte (Method B); also called beta-amyloid (1-42)
T7 sequence (P05067 672-713 limits assumed): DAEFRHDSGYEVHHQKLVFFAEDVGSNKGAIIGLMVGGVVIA
Procedure: as §2, §3

[8] = molecular target: T8, human Aβ peptide (1-40) biotinylated at the C terminus (human, UniProt P05067 672-711, biotinylated at the C-terminus); assay: SPR Biacore 3000, Method A(i): C-terminally biotinylated β-amyloid 1-40 on streptavidin chip, antibody as analyte; Run 1
T8 construct: domain: β-amyloid peptide (1-40); Numbers 1-40 count on the β-amyloid peptide, not on APP; also called beta-amyloid 1-40 peptide (biotinylated at the C-terminus); streptavidin-captured beta-amyloid (1-40)
T8 sequence (P05067 672-711 limits assumed): as the sequence (P05067 672-711 limits assumed) above
Procedure: as §2, §3

[9] = molecular target: T8, human Aβ peptide (1-40) biotinylated at …; assay: SPR Biacore 3000, Method A(i): C-terminally biotinylated β-amyloid 1-40 on streptavidin chip, antibody as analyte; Run 2
Procedure: as §2, §3

[10] = molecular target: T8, human Aβ peptide (1-40) biotinylated at …; assay: SPR Biacore 3000, Method A(i): C-terminally biotinylated β-amyloid 1-40 on streptavidin chip, antibody as analyte; Average(SD) of two runs
Procedure: as §2, §3

[11] = molecular target: T6, human beta-amyloid peptide (1-40); assay: SPR Biacore 3000, Method B: antibody captured on anti-mouse IgG surface, β-amyloid 4-500 nM as analyte; n = 3; peptide length not given
Procedure: In the second instance the assay was reversed, in that antibodies were first captured to a level of 1000-2500 resonance units on an anti-mouse IgG polyclonal antibody surface (for recombinant mouse 2E7 MAb) or a protein A surface (for humanized H2L1) of a CM5 biosensor chip. Freshly prepared beta-amyloid (1-40) or (1-42) was diluted down in HBS-EP buffer and passed over the captured-antibody surface at concentrations ranging from 4-500 nM (Table 10C and 10D).
as §3

binding result [1]: binds
binding result [2]: binds
binding result [3]: binds
binding result [4]: no binding
binding result [5]: no binding (tested: up to 64 nM)
Kd [6]: 0.317 nM
koff [6]: 0.000128 s⁻¹
kon [6]: 405000 M⁻¹ s⁻¹
Kd [7]: 0.394 nM
koff [7]: 0.000151 s⁻¹
kon [7]: 382000 M⁻¹ s⁻¹
Kd [8]: 0.0383 nM
Kd [9]: 0.0338 nM
Kd [10]: 0.0361 nM
Kd [11]: 1.58 nM
koff [11]: 0.000428 s⁻¹
kon [11]: 283000 M⁻¹ s⁻¹
B1: Mouse monoclonal antibody 2E7 (antibody, mouse IgG2a, V domains shown)
VH: EVKLVESGGGLVQPGGSLKLSCAVSGFTFSDNGMAWVRQAPRKGPEWIAFISNLAYSIDYADTVTGRFTISRDNAKNTLYLEMSSLRSEDTAMYYCVSGTWFAYWGQGTLVTVSA
VL: DVVLTQTPLSLPVSLGDQASISCRVSQSLLHSNGYTYLHWYLQKPGQSPKLLIYKVSNRFSGVPDRFSGSGSGTDFTLKISRVEAEDLGVYFCSQTRHVPYTFGGGTKLEIK
notes: Murine IgG2a heavy chain, murine kappa light chain; also called 2E7 MAb; parental mouse 2E7 MAb
